{
  "source": "paper PMC11665613",
  "target": "MPP8 (M-phase phosphoprotein 8) (UniProt Q99549)",
  "sequence (Q99549 whole entry)": "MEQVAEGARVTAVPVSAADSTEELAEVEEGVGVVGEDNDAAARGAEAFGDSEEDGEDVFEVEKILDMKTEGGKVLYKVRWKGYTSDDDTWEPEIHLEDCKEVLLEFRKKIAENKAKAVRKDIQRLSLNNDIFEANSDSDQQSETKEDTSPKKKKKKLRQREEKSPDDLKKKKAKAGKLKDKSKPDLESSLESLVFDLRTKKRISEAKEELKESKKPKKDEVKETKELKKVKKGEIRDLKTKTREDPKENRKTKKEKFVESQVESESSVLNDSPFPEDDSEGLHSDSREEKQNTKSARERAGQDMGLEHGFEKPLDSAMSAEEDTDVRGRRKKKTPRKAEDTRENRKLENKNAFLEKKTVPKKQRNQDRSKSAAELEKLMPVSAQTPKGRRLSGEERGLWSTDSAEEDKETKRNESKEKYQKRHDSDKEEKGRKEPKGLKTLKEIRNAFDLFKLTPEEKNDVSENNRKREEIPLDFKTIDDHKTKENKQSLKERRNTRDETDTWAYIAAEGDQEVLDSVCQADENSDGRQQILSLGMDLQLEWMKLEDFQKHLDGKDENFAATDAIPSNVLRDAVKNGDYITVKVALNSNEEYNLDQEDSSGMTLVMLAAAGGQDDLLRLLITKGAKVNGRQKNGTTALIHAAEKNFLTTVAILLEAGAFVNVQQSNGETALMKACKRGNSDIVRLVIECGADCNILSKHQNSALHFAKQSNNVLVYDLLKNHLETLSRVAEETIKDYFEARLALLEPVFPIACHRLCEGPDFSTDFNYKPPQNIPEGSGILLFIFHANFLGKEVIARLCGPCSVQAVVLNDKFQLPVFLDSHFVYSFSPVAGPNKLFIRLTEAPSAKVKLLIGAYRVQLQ",
  "assay": "cross-linking; photo-crosslinking under UV-B irradiation of recombinant reader (3 or 10 uM CBX1, 5 uM BPTF, 3 uM MPP8) with sulfonium peptide (100 uM or various concentrations), 3 to 20 min; conjugates quantified by HR-MS",
  "data": [
    {"substance": "H3K9NleCTMS peptide (histone H3 peptide, cysteine at position 9 alkylated to cyclic tetramethylene sulfonium)", "values": [
      {"measurement": "fold increase of the peptidyl conjugate yield against H3K9NleS+me2", "value": "> 3", "unit": "fold"}
    ]}
  ]
}
